Earlier results as cited in publication PMC7023894.

Target: Ezrin FERM (Homo sapiens) (UniProt P15311)
UniProt P15311, sequence (P15311 1-299): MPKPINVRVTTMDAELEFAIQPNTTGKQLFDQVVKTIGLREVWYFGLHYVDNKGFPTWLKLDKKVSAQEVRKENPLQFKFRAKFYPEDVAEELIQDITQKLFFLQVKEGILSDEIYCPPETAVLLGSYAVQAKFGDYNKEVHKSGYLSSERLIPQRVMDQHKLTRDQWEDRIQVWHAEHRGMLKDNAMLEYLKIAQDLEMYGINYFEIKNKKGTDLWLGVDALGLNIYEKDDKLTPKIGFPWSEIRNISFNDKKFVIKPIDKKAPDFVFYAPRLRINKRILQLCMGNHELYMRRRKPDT

Q: With “Transgelin-2 CLR region (from UniProt P37802)” as the substance, how does the Kd read?
A: 73.3 nM
